{
  "source": "paper PMC5778138",
  "about": "“Interaction of the Morphogenic Protein RodZ with the Bacillus subtilis Min System” (Frontiers in Microbiology, 2017)",
  "binders": {"B1": {"name": "His-tagged cytosolic part of RodZ (domain or fragment)", "chain": "VTELGIRLKEAREEKAMSLDDLQAATKIQKRYLTALEEGNYDIIPGKFYVRAFIKQYAEAVGLDADQLFEEHKKDIPNTYHDDVSEKISGMNLQKEMPKPASKALE"}},
  "target": "T1, His-tagged cytosolic part of MinJ, fluorescently labeled (B. subtilis, labeled with the amine-reactive red fluorescent dye NT-647 NHS)",
  "T1 chain": "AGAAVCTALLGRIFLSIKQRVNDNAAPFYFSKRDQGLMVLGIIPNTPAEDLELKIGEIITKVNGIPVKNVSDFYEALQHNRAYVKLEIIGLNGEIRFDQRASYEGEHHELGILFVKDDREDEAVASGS",
  "experiment": "MST; NT-647-labeled His-cyt-MinJ at 34 μM, cyt-RodZ titrated from 6.7 nM to 221 μM in 16 capillaries; Monolith NT.115; the methods call the Kd preliminary",
  "settings": "both partners purified",
  "data": [
    {"binder": "B1", "values": [
      {"measurement": "Kd", "result": "5.1 ± 0.6", "unit": "µM"}
    ]}
  ]
}
